In paper PMC9019252 (The Journal of Biological Chemistry, 2022):

B1: PABP-interacting protein 2A (Paip2A), full length (natural protein, human, UniProt Q9BPZ3 1-127, looked up)
chain: MKDPSRSSTSPSIINEDVIINGHSHEDDNPFAEYMWMENEEEFNRQIEEELWEEEFIERCFQEMLEEEEEHEWFIPARDLPQTMDQIQDQFNDLVISDGSSLEDLVVKSNLNPNAKEFVPGVKYGNI
B2: PABPC1 RRM2 including the RRM2-3 linker (residues 100-190) (domain or fragment)
chain: not shown
B3: Paip2A(25-83) (residues 25-83 of PABP-interacting protein 2A) (domain or fragment, human, UniProt Q9BPZ3 25-83, looked up)
chain: HEDDNPFAEYMWMENEEEFNRQIEEELWEEEFIERCFQEMLEEEEEHEWFIPARDLPQT
B4: PABPC1 RRM3 including the RRM3-4 linker (residues 191-289) (domain or fragment, human, UniProt P11940 191-289, looked up)
chain: TNVYIKNFGEDMDDERLKDLFGKFGPALSVKVMTDESGKSKGFGFVSFERHEDAQKAVDEMNGKELNGKQIYVGRAQKKVERQTELKRKFEQMKQDRIT
B5: PABPC1 RRM2/3 (residues 100-289) (domain or fragment, human)
chain: GPLGSNIFIKNLDKSIDNKALYDTFSAFGNILSCKVVCDENGSKGYGFVHFETQEAAERAIEKMNGMLLNDRKVFVGRFKSRKEREAELGARAKEFTNVYIKNFGEDMDDERLKDLFGKFGPALSVKVMTDESGKSKGFGFVSFERHEDAQKAVDEMNGKELNGKQIYVGRAQKKVERQTELKRKFEQMKQDRIT

Columns and labels:
[1] = biological target: PABPC1 RRM1/2/3/4 (residues 1-370) (human, UniProt P11940 1-370); assay: SPR
[2] = biological target: poly(A)-binding protein C1 (PABPC1), full length (human, UniProt P11940 1-636); assay: SPR
[3] = biological target: B5; assay: NMR titration
[4] = biological target: B3; assay: ITC
[5] = biological target: B2; assay: ITC
[6] = biological target: B4; assay: ITC
[7] = biological target: B5; assay: ITC

dH [4] [kcal/mol] | stoichiometry N [4] | Binder | also measured
– | – | B1 | binding result [1]: binds; binding result [2]: binds; binding result [3]: binds
-28.7 | 0.87 | B2 | –
– | – | B3 | Kd [5]: 4 µM; Kd [6]: 1.3 µM; Kd [7]: 0.0019 µM
-43 | 0.87 | B4 | –
-55 | 0.83 | B5 | –
